# Experiment: soluble on expression in E. coli; label from the status in PepcDB or PDB records
row,Sequence,soluble on expression in E. coli
1,MGSDKIHHHHHHMSFKKVDLSRYQFDGAQASSIGDLTQLDAADKQRLLYAGIDVNQQNLAGSFMHMNHSGVHCTSRQEGLEILDIKQALDTYHGLPDYFWKLVDRNKDEYTRAADEHLHGGYFIRARAGAKIEAPVQSCLFIKGNGVGQNVHNVVVVEEGAEMHIITGCATAHDTRSVAHLGISEFYVHKGGKLTFTMIHNWGEEAAVRPRSAGYLEEDAVFLSNYVLLKPVTDLQMYPTITLGGRGSVARFNSVIVAPTGSYVDTGNRILLEAPDTRGEIIARTMTTGGTIINRGHIAGHAVPARGHLECKGLILGGGVIHAIPELEGTQDGVELSHEAAVGKIAQEEIEYLMARGLDEDEATSTIVRGFLNVDIMGLPEELEKAVEEQINQLDAGDAM,not soluble
2,MGSDKIHHHHHHMSGDTCLCPASGAKPKISGFKGGGLGNKYVQLNVGGSLYYTTVRALTRHDTMLKAMFSGRMEVLTDKEGWILIDRCGKHFGTILNYLRDDTITLPQSRQEIQELMAEAKYYLIQGLVSTCQTALQDKKDSYQPVCNIPIITSLREEDRLIESSTKPVVKLLYNRSNNKYSYTSNSDDHLLKNIELFDKLSLRFNGRVLFIKDVIGDEICCWSFYGQGRKLAEVCCTSIVYATEKKQTKVEFPEARIYEETLNVLLYETPRVPDNSLLEATSRSRSQASPSEDEDTFELRDRVRRIHVKRYSTYDDRQLGHQSTHRD,not soluble
3,MGSDKIHHHHHHMSGKNKSVADIMAVCQEMFEDLNFNYARKWKAAKEGRKVIGFLPVYSPIEMIHAAGCLPLGIFGGGDQMEVIHGDAYYQSYICRIPRSTIELGVTNRLDFVDGMIFPFVCDVIRNLSGIWKLMFPNVWSKFFDTPQNYDKSIGGTYYIQELQELKEGLETLTGRKISDADIQRSIGLYNENRRLIREVYAFRAKQPWLAPTSEVYVLMRAGLMMDVEEHNQMLKDYMAAAAKEDRPKRDNVRISIYGSFCEQPPLNLIKSIEMAGCYVVDDDYSLNNRFLMVDVPTTGNPLEALAITYLENSVETSCKYVPDGKVKGQFHVDAVKACGAEGVIYATPSFCDPALLDRPMVCNKLSEAGIPYIAFKYAENSGQMQPIREQAGTFADSIKLWS,not soluble
4,MGSDKIHHHHHHMSGRTMSSIYILWDASHIWGLLAWRTAQSLDLPYRLVRGEEIAQGLLSGKPPALLLVPGGNARMKSVALGAAGMQAIRDYVRGGGAYVGFCGGAGLGLSGSEGLGLCPWGRARFTDRMQHFVSGHVHARVARGHDLVPADLCTDACAEPPVPIWWPGRFAPEKTGDVEVLATYTTPCDDFWVADLPLDTLPPGTFSEWESLYDIRLRPTFLEDQPCILSGRYGKGRYVLSYTHLETPDSPTANRWLLHIIRTLGGIEPPLQRVPAWDLENQQAAWLDPDLLHARGIFDDIVTIGRNHCLFFKRNAWLIGWRAGIPGANLNNLYAAVVTAVSNPPTAECTAYWQEQRQPFMRKLALFHEGVKGYLLAERLAMTLSKTFPETVSRESLRNQRAALFGPPMDSGGLYQELLDTLDELLYRQLPHGL,not soluble
5,MGSDKIHHHHHHMSHNKFDIIPAASFSNIGLEMIPPFPGLSSWVQCLWVNNDLKNSSRHVEEKLYPDAGSSLTFEIRNTRINARYFHHTRVVTHRWDTSTRHISVRFRPGGAKALLGLDIDDSQNIEIDLFDTPVSQQLSLQPLMDMLPALSADQQVQAVQNWLLTLSYRAQEPSRKWSTLLAHASADLIPPQQLALQNGFSRRTLERQLRKYLGFTPNQLHGFAQIRAARQYLILTPDSLSDIALACGYFDQAHFTNAFREQTLETPLQYRQRKMSQISNR,not soluble
6,MGSDKIHHHHHHMSIARLREFVSDLTDIVGDDLHEAALLDRMRAPMTRLLAKDDWLPDAFAQPHPEFYQQYLLHCDPKQRFSVVSFVWGPGQKTPIHDHTVWGMIGMLRGSEHSTRFEVVGPDQPLRVAQTDVLEEGGIDVVSPSVGDVHQVSNVYDDRVSISIHVYGANIGRVRRHVYNGETGGVKEFVSGFSSSVVPNLWNAN,not soluble
7,MGSDKIHHHHHHMSIESILKNRSSTRAFLDKPVTKETLDLIFAHAQLSPSNCNVQPWQTCVVSGQTKDTLKQKFMQTLMSGASPNPDFNWLPQYQGVHRDRQFGSANALYSSIGVAREDKKARQMAMVRNWQFFDAPHAVFFTMDKYLDIMGAVDLGIYAQTLSLIMADHGISNCMQGALGQFPDPVREILNLPAERGILFGMSFGYADDSAAVNNTRTDREPIENAVAFFD,not soluble
8,MGSDKIHHHHHHMSIFISGSLAYDRIMNFPGKFSDHILPDKIHILNVCFLIDRLEEKRGGTAGNIAYSLALLGEKPTILATVGKDFDRYEEVLTGLGLPQDGIRKMDDQFTAGAYITTDQSDNQITGFNPAAMSHPCGYQFNGVTPENDLAIVSPGNLQDMVELPRKFRSMGMRYIFDPGQQITALTGDSMLECINGAHMLVSNDYELEMIMKATGRTKAELLTMTDYIITTLGENGSRIDNGEPVMVGIARPRQVLDPTGAGDAFRAGLLKGLTDGLDVAGAAKIGATCASFCVEHYGTQEHTFTPEEFKARHQAAFGA,not soluble
9,MGSDKIHHHHHHMSIPNAIKHTQTDSALSNIALSNTRDHLLTTGYKLIAQKGFTAVGIKQILDTAGVPKGSFYHYFASKEAFGEAIISHYFTQYKQRLNIIGSQDVSAQQKLYDYFQNWYDTQQSGCDHEKCLVVKLSAEVSDMSEPMRKVLHTGYQQTITWLATQIKAGWVDGSVPHPANVAAESMAKRWYFAWLGASLVTKISQTDTPLAEAWLMTTTAMGR,not soluble
10,MGSDKIHHHHHHMSIQTSDPNETSDLKSLSLIAAHSHITGLGLDENLQPRPTSEGMVGQLQARRAAGVILKMVQNGTIAGRAVLVAGPPSTGKTALAMGVSQSLGKDVPFTAIAGSEIFSLELSKTEALTQAFRKSIGIKIKEETELIEGEVVEIQIDRSITGGHKQGKLTIKTTDMETIYELGNKMIDGLTKEKVLAGDVISIDKASGKITKLGRSFARSRDYDAMGADTRFVQCPEGELQKRKTVVHTVSLHEIDVINSRTQGFLALFTGDTGEIRSEVRDQINTKVAEWKEEGKAEIVPGVLFIDEVHMLDIECFSFINRALEDEFAPIVMMATNRGVSKTRGTNYKSPHGLPLDLLDRSIIITTKSYNEQEIKTILSIRAQEEEVELSSDALDLLTKTGVETSLRYSSNLISVAQQIAMKRKNNTVEVEDVKRAYLLFLDSARSVKYVQENESQYIDDQGNVQISIAKSADPDAMDTTE,not soluble
11,MGSDKIHHHHHHMSKKTYYYHSESEDLVSSAQQDFQLPDDYQFFREGVAWQFWNGLVRSLACAFAWLYSRLFLLVKVKGKEKLRPFKKQGYFVYGNHTQMLGDPFNPMTIVNPYHYYALAAQANWGIPFLGKYVIPAAGLPVGKNIKQSIRLLKDVKYAYEEKQAAIVIYPEAHLWPYYTKIRPFPATSFNFPVSLKAPAFAMTTTYQPCRWRKRPKITVYIDGPFYPDEKLGKKAAQEKLHGEIAKSMQERAKLSTCEYCSYVKIDSKN,not soluble
12,MGSDKIHHHHHHMSKRLLLFDFDETYFKHNTNEEDLSHLREMEKLLEKLTNNNEVITAVLTGSTFQSVMDKMDQVNMTFKPLHIFSDLSSKMFTWNNGEYVESETYKKKVLSEPFLFEDIEDILRHISAQYNVEFIPQRAFEGNETHYNFYFHSTGNHNNDSRILEALVRYANDQNYTARFSRSNPLAGDPENAYDIDFTPSNAGKLYATQFLMKKYNIPVKSILGFGDSGNDEAYLSYLEHAYLMSNSRDEALKQKFRLTKYPYYQGITLHVKEFVEGKYDY,not soluble
13,MGSDKIHHHHHHMSKSVDETVFDFFELLLHEDDSAFSASPIKSQASATSAFDVSIKTEAQQLNDAILAEHERSKVDARASIVPEAQLARAKSIVTVSTKENAEPLVNKQALERLLAPVLKTQAPDIPKPTELNEQPLPLPKPVEAIAVTNVVKPADVESQQVEIISTAPETQVGFAPPSVTKDLQEVLDDEFQVLFFKVAGLTLAVPLVSLGGIVKVERINHIIGRPSWFLGVQTHREEQLNLVDTCAWVMPEKYTDKLAQSVNYQYLVLLEGSNWGLACESLLNAVKIHKSQVNWRSKAGKRPWLAGVVKEQMCGILHVQALVQMLDAGLGCQDSIG,not soluble
14,MGSDKIHHHHHHMSKWQSKEQLIQLLSSLVEIPSITGTEAEVILPDFVVEQLSDLQYFKENPHHLQKNPTGDGRYFVTALVKKSDRTKNTVILVSHFDVVDVQDYGVWKEDAFNPKKLTSMFYAHKDELPDHVREDIEQGEWLFGRGTMDMKCGLALQMAMIEQACEGRFDGNVLLLAVPDEEVNSVGMRAAIPRLLELAREHDLEYKTVLNSEPMFARHPGDQKKYIYTGSIGKVLPGFLCYGKETHVGEPFAGLNGSYMASLITAELELNTDLCDIVEGEASPPPTNLLQRDLKEDYSVQIPHRAVTLFNLFLLEKSMTDVVSLLRQKVTKVAEKIEEKYEKQAYRFSKYNPFIPPNMKVNVLTYEELIAYAIEQHGQEKINEIQSSIIKNREEKDDRAVTIDLVDKLAILCKEKAPMIVLFFAPPYYPAVSSRNNLLIKEVVTEMEKYANLNHNITFENQNYFGGISDLSYVGLQNPLDSMSSLVDNMPLWDKGYSIPLQELEEFDVPVLNMGPVGKDAHQWTERLDVNYAFETLLDMLPICIEKLLVSNKITQV,not soluble
15,MGSDKIHHHHHHMSLAIVYSRASMGVQAPLVTIEVHLSNGKPGFTLVGLPEKTVKEAQDRVRSALMNAQFKYPAKRITVNLAPADLPKEGGRFDLPIAIGILAASDQLDASHLKQFEFVAELALTGQLRGVHGVIPAILAAQKSKRELIIAKQNANEASLVSDQNTYFAQTLLDVVQFLNGQEKLPLATEIVKESAVNFSGKNTLDLTDIIGQQHAKRALTIAAAGQHNLLFLGPPGTGKTMLASRLTGLLPEMTDLEAIETASVTSLVQNELNFHNWKQRPFRAPHHSASMPALVGGGTIPKPGEISLATNGVLFLDELPEFERKVLDALRQPLESGEIIISRANAKIQFPARFQLVAAMNPSPTGHYTGTHNRTSPQQIMRYLNRLSGPFLDRFDLSIEVPLLPQGSLQNTGDRGETSAQVREKVLKVREIQMERAGKINAYLNSKEIERDCKLNDKDAFFLEKALNKLGLSVRAYHRILKVSRTIADLQGEQQIFQPHLAEALGYRAMVRLLQKLSNM,not soluble
16,MGSDKIHHHHHHMSLAPSVIEPAHEEDAFMDLLATSALDDPLAAARDATADMLRQRQGDHSLPQPFYNDPRVFALEMREIFEHEWLFVGMTCEIPAKGNYLTVQIGDNPIIVVRGDQGTIHAFHNVCRHRGSRLCTQAKGKVAKLVCPYHQWTYELDGRLLFAGQDMGEDFDLGAHGLKPVAVTHAGGFLFVSLADQPPAIDDFLATLDDYLAPYEMDNVKVAAESNIVEQANWKLVIENNRECYHCNGAHPELLNSLIEYDDTDDPRATPAYRDLVARQQAHWEQQQVPWALKRFGKRNRLTRTPMIEGVVSMTMDGRPASQRLMGRLPNPDMGSLRILHLPNSWNHFMGDHAVVFRVLPLGPQQTLVTTKWLVHRDAQEGVDYDPEWMRKVWDATTDQDRQLAEENQRGINSVAYQPGPYSRTYEFGVIDFVDWYSDTMLSRLDAEAPSLHIVQG,not soluble
17,MGSDKIHHHHHHMSLLKITQGLFRLSDTRMLRLDELTLEQNQCWAFVGANGSGKSALARALSGELPLLSGERTTGFQHPVRLSFEQLQKLVSDEWQRNNTDLLSEGEDDTGRTTAEVIQDSLNDPTRCQQLACQFGIAHLLERRFKYLSTGETRKAMLCQALMPQPDLLILDEPFDGLDVTSRQQLADELRKLVDTGYTLVLILNRFDDIPDFINHIGVLADCTLTRIGEREAILSEALVAQLAFSEKLSGSSLPEPEDPQRHVTLPADEAHILLRNGVVQYNDRPILHELTWEVFPGQHWQIIGPNGAGKSTLLSLITGDHPQGYSNDLTLFGRKRGSGETIWDIKRHIGYVSSSLHLDYRVSTSVRNVILSGFFDSIGIYQAVSDRQRHLTEQWLILLGLSGAIADTPFQSLSWGQQRLTLIARALVKHPALLILDEPLQGLDPLNRQLVRRWLDILIGEGETQLLFVSHHAEDAPECITHRLTFVPHNDIYRYQIDELCK,not soluble
